The source of these data is a protein production outcome set (Wang et al. 2014).
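Also: failed if final PepcDB status was selected cloned or expressed and not failed if soluble or beyond.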

This data set is described as follows: label from the status in PepcDB records.
For “MILSNYFKFLSHQLKGWPQQNYYLFYFSLGCQVMTLVSAPITALSILTFIGTTLGVLCVLAINAAKSVNGLLGVISAACFIVVGFSAKNYLSIGEQLAYVVTLDIPVLLSANWNVNMVSKIRKFTGKTWIVAIVATLVVYAISGYLIGALTDDPRPWVDAISFAICLTAGVICFLRYNNQYFWWIASGLAQMVLWFISFRQGSATLAMFINSSVYLMNDVLAFTVSPWYNKHERARLMAEEQAASDAASADASDNQAFGLNH”, the protein production entry is “failed”.

As to “MILTVGNTKGGVGKTTLAVNLAVERFLAGKDVLLIDADNQRTSSAFSALRESLHGQTGYTCIELSGSAVHQQGRNLAPKYDEVIIDVGGRDTSALRGALAISDIALVPFAVGTFDIWAAEDIGRLIEEARGFNPTLRAFSVLNMADPAGGDNADAAGLLTETSALVYLRASLVRRKAMRNAAAAGLGVLEMTGSSRDSKACGEVGYLAELLYNKLNLEHHHHHH”, the protein production result is recorded as “failed”.

With “MILVSLVVVLFLVLLNGVFSMSELAVVSARKARLQGFAERGDRGAKLALEMSEHPTRFLSAVQVGITLIGIFAGAYGQATIAAALDAWLEASVPALAKYSEAIATTLVVIGLTYVSVILGELVPKRLALIFPDAIARRMAPFLAVVATVLRPFVTLLTVSTAAVLRLMGVRDERNTSVTSEEVEAVLAEGADAGLIEPEERSMIQEVLRLGDRPVRVAMTPRRDLFWVSLADDTETVLKEIRASAHSRIVVATEGDLDGDVGVLLKKDLLDACLSGEPLDLKAHVQQPLAIPETMSLLKALQLFKSTSLHMALVVDEFGSLQGAITPLDLLEMIAGDFPEDHDDDEKRIIRREDGGWLIDARLDIQELNDHLGENFEADGGYHTVAGLILDRLGRLPTEGEHVEIGGFDLEIVDMDGSRIDKVILKPSKRRKEGQEG”, the protein production entry is “failed”.

As for “MILYVFLFFVGLLLLYLGAEGLIQGASSIALQYGIRPVILGLTVVALGTSMPEYLVNVFALISGESPLAIGNIIGSNISNVALILGACAVVLPLAVTPEVLRREYPVMLGVMVLFYLCALDGVIGARDGVLMVVLLSGLAAYVFYDAHRTTRGTVLESMEGELDAADPDLSTLAKAVYVIGGMGGLTLGAHLMVDNALAISDVLNIDHVVIGLTVVAIGTSLPELAASMVGTLKQEVDMTVGNVIGSNLLNVLFVVGTLAIAEPITVDPETIRLHFPVMLGFCALLVPLTWWDQKITRVEGAFMVIAFLGFMVFLYV”, the protein production result is reported as “failed”.

As to “MIMEHEYRLEVRGYELDSFGHVNNAVYLNYLEAARWDLCSKLNLTDYNESNELFIVVIETNIKYIRELKLFDKVLIKTELTYEDDYLIFKHNIYNEVTKRKASVAKSKMVLVSKQRIIYEIPQFIKDKLDICAYGLEHHHHHH”, the protein production result is reported as “failed”.

For the sequence “MIMTSDIKLLDYLRVRRSTPALQLSEPGPSKGEIEEILRLAVRVPDHGKLAPWRFVVYRGEERVRLSEAALRIALEKNPDLDLQQQEAERTRFTRAPVVIAVISTAKPHFKIPEWEQVMSAGAVCLNVIFAANASGFAANWLTEWLAFDPAFLAEIGVSAEEKVAGYIHIGSTTFPPVERPRPELADVVTWVGDV”, the protein production entry was “not failed”.

With “MINDIILLLFVKIKRRLMMDKLFKLKENGTDVRTEVLAGLTTFFAMSYILFVNPQILSQTGMPAQGVFLATIIGAVAGTLMMAFYANLPYAQAPGMGLNAFFTFTVVFGLGYSWQEALAMVFICGIISLIITLTNVRKMIIESIPNALRSAISAGIGVFLAYVGIKNAGLLKFTIDPGNYTVVGEGADKAQATIAANSSAVPGLVSFNNPAVLVALAGLAITIFFVIKGIKGGIILSILTTTVLAIAVGLVDLSSIDFANNHVGAAFEDLKTIFGAALGSEGLGALVSDTARLPETLMAILAFSLTDIFDTIGTLIGTGEKVGIVATNGENHQSAKLDKALYSDLIGTTVGAIAGTSNVTTYVESAAGIGAGGRTGLTALVVAICFAISSFFSPLLAIVPTAATAPILIIVGIMMLGSLKNIHWDDMSEAVPAFFTSIFMGFSYSITQGIAVGFLTYTLTKLVKGQVKDVHVMIWILDALFILNYISMAL”, the protein production result is “failed”.

“MINFFDLFLSDFLTSLRLFCKVWDEQTTLQALLEHVRAIPGHCQKKILTKLLVTDIWDKEDTKLLAALKHIDVRPTRVACRPSLQVLGLYNDVVTVFQTHGMGWYREIDEDVYPKLVKEFIATCRLTYANPENPKASQGTLTFFLNKKHYNKTMFEIYDMYGFTKGEAVEFSKLSPTHITSLLSTTNPVFEHNEQYLVPDPSKTVPRRRRTAEAQPTDEHVISNDEIYEDYAYPTSLAHAQPYLLLPEDPTPYRVSPPPAGDDISQQMAWMIALTRKNNSMMHKMWRAISRIRPCVCTRRGGVDDANRENQSKTIEDRHAERLVPAAGPSGASTSQPPPEHSQAVA”: the protein production result was “not failed”.

Consider “MINHKIFPTADAVVKSLADDMLAYSQQGQPVHISLSGGSTPKMLFKLLASQPYANDIQWKNLHFWWGDERCVAPDDAESNYGEANALLFSKINMPAQNIHRILGENEPQAEAERFAQAMAHVIPTENGTPVFDWILLGVGADGHTASLFPGQTDYADANLSVVASHPESGQLRVSKTAKVLQAAKRISYLVLGAGKAEIVEQIHTTPAEQLPYPAAKIHSTSGVTEWYLDSDAAAKIA”, for which the protein production entry is “not failed”.

Take “MINKPNQFVNHLSALKKHFASYKELREAFNDYHKHNGDELTTFFLHQFDKVMELVKQKDFKTAQSRCEEELAAPYLPKPLVSFFQSLLQLVNHDLLEQQNAALASLPAAKIIELVLQDYPNKLNMIHYLLPKTKAFVKPHLLQRLQFVLTDSELLELKRFSFFQALNQIPGFQGEQVEYFNSKLKQKFTLTLGEFEIAQQPDAKAYFEQLITQIQQLFLKEPVNAEFANEIIDAFLVSYFPLHPPVPLAQLAAKIYEYVSQIVLNEAVNLKDELIKLIVHTLYEQLDRPVGDEN”: the protein production entry is given as “not failed”.

Consider “MINKTLLQKRFNGAAVSYDRYANVQKKMAHSLLSILKERYSETASIRILELGCGTGYVTEQLSKLFPKSHITAVDFAESMIAIAQTRQNVKNVTFHCEDIERLRLEESYDVIISNATFQWLNNLQQVLRNLFQHLSIDGILLFSTFGHETFQELHASFQRAKEERNIKNETSIGQRFYSKDQLLHICKIETGDVHVSETCYIESFTEVKEFLHSIRKVGATNSNEGSYCQSPSLFRAMLRIYERDFTGNEGIMATYHALFIHITKEGKR”, for which the protein production entry is “failed”.

As for “MINLWPLLLPAAAWSGWWLANRSNSNKDAHVHNRLSREYVVGLNYLLNEQSDKAVDVFIKLLEVDSDTVETHLALGSLFRRRGEVDRAIRIHQNLIARPQLSIQQRKEALMALGQDYMSAGVFDRAERIFLEVVELGGSRDTSSLQGLLAIYQQEKAWEKALDIIKKLEISTGASFHNQAAHYYCEMASQALKINAMDRAIYCIKQAMNVDPESVRASLMNATIEIKEGRYKQAIRSLKRVPQQDAEFLTEIIEPLVLCHKELDSMPDCIHYLEQTLEKHPRASVIFVIADYLRQNKGMDIAIDFVADNLSKHPSIRGLNRLIYWHLESAHGKVREKLQMLYDITSKFLDNKPIYRCGHCGFGGKHLHWHCPSCKQWGRMKPIHGLEGD”, the protein production result is “failed”.

As to “MINMYIPQFNPRIRKDQKSGLFFFEIRDNEGKTVSYQSGFNTKREAENTALEIQQKLRQGYTLDRYTSLYDWFQTWYDLKIRPKKKLSQETKKNYQIYGETLKRLFGDKPIIDIKSSQYQRIMNVYGETVGYDYLSRINSVIRKIIKLAQSDKIVIDDFTSTVELFAGKDGQKVNEKYIHSVEDYHRLISYLENNLNYEDSVVNHVIYVIAKTGMRYGEIIGLTNNDTSLDEHYLHTYKRYNTSTWKWTNAKNESSKRYIPIDDKIVAALSNMIKERERINSLLRIKNKEEFLFFHYGLEHGIPSVATVNKALKKILKKLDIEPIITTKGLRHTYGSYLLHNNIDMGVVARILGHKDIQMLIQVYGHTLTEKIDKEFKEVEQIMNRI”, the protein production entry was “failed”.

For the sequence “MINSVITQMAEELRKASKVALFSHVSPDGDCIGSMLGIGLALEALGKEVAMFNPDPIPRNLSFLPGVDKITQSMPDPLPETLLFVDCADLQRVQLQREDLPADAVILNLDHHISNQNFGRINWVDSQAAASGELAYALVRRLNVELTQEIAANFYTALLTDTGSFKYANTTAKTHQIAGELMETGISLGDIHHFVFDQTPMVKLELLRRGLNQLQFFAEGQLGMMTLRKQDFEESGAEESLSEGLIDHARTVEGVEVAVLLKEVKPDVVRVSLRSNRWFDVNRIADGFGGGGHQRAAGCTLHLSLEEAKQKVRQIIEEELKLGRSHLEHHHHHH”, the protein production entry is “not failed”.

Take “MIPPGAQTPCPAGTRGDEATQLRRFVASVPNRISIGAARGAAPLSALLGLLLLGGAWTLRDHPGPGHEAAALCLLAAAALLMCLACLQRNARSAPFLVLGQGRLRARSLSAPLDLLEVADLRLEDGVWFSAIVLELHGKALPAPSTRPLDPFAARAVSECRDGPRVRLLSPGWRLNGRNLSLLEAAEVIDLYLDIARAQARLRQLGEIPPSASSSLPTPRIFP”: the protein production entry is “failed”.

With “MIPPLQLSPLALVALLSLAAWAVVLLTRRRFWRCDQRLGQNTMAPGAAPAVVAVIPARDEAHTIGQTVRSLLNQSYPGRLVVVVVDDSSSDGTADAARAGAASVYDGPSRLIVVPGKPLEAGWSGKLWAVHQGLEVAAQAVPEARYVLLTDADIEHIPGNIARLVGKCERDGLVMASLMVKLRCESAWEHLLIPAFIFFFQKLYPFPLVNDPDRRVAGAAGGCILARRETLDAIGGVAAVRGALIDDCALAALLKEKGPIWLGLAGRTRSLRPNDELGDVWRMVARTAYVQLHHSPLRLIGAVIGMTLLYLVPPVSLIVGILSADFPAAVAGLVGWIGLAIIYRPTLHLYRRPPMAGLALPLAALLYTLMTIDSARRHYVGRGGEWKGRTYSGDASAGADPGPRSPAELAAHVEAITKASGTSFYGAMRILPRERRLAMYAIYAFCRVVDDIADGTAPEAEKRAELARWRDEIEALYARGGKGPEHPVARALDGPIRRFALPREDFLAVIEGMELDAGPRVRIRDITELEQYCDWVACAVGRLSNRIFGADPALSDDVARHTGLALQLTNILRDVVEDAERDRLYLPLSRLRAHGLKTTKDIDAVLVHPATAKVCAELASKAAAEFAEADRAQAACDRKTMRPAIIMKEVYRRIHAALMVRGWARLGEPVKVSRLTKLGIALRHGWL”, the protein production entry is “failed”.

On to “MIPPSIRLTLRNLIVNTDPGTLLFLLGLPSFYLIVLGLMFQSIIPNVPFAGKDISYAQFLSPGVVAMQPFIAGSIGGSMLWSDRRWGMFEQLIVGPFHRIDYLLGIIYVSIIFSVGGAFLMFLVSYAITGFLVSYDINLLMIAVVLIVSSILFTSIFLVLSVFIRTIQTYNTVTMFVFFILDFASSAFYPINSRTPLGLRIVSYMNPLTYIVDAVRNMMFYKIGMQDYISLLIVVVLSGFFFLIALVSYGRARV”, for which the protein production entry was “failed”.

For “MIPPSYCFYYFIHSGGLLSLKIRCENFIRSIADLIRKAEIELPDDVVNALRKAESIEENQVAKSQLQAILKNIEIAKNHAVPMCQDTGIMIFFAELGTEFQPGFDLEAAVRDAVVLATREIPLRPNAVDPLNRNNSGNNTGSGIPDIHWKLVPGKQLKITVSPKGAGSENMSALRMFNPTEAGSIKNFVLETVINAGGMPCPPLTLGIGIGGSFDKAARLAKEALLEPLDAPMNELEQEVLEAVNALGIGCMGLGGSTTALAVHIKTAHCHTASLPVAINIQCWANRHASIVFGEEE”, the protein production entry is “failed”.
